Laboratory results from patent US20250101071A1 (PAUL EHRLICH INSTITUT BUNDESINSTITUT F R IMPFSTOFFE UND …, published 2025).

B1: DARPin 53.A8 (designed binder)
chain: DLGKKLLEATRAGQDDEVRILMANGANVNATDEEGLTPLHLAALDGHLEIVEVLLKYGADVNADDMHGPTPLHLAAYAGHLEIVEVLLKYGADVNAYDCGGHTPLHLAARLGHLEIVEVLLKYGADVNAQDKFGKTPFDLAIDNGNEDIAEVLQKAA
B2: recombinant human CD32a extracellular domain with C-terminal His-tag, biotinylated (H167R) (receptor)
chain: QAAAPPKAVLKLEPPWINVLQEDSVTLTCQGARSPESDSIQWFHNGNLIPTHTQPSYRFKANNNDSGEYTCQTGQTSLSDPVHLTVLSEWLVLQTPHLEFQEGETIMLRCHSWKDKPLVKVTFFQNGKSQKFSRLDPTFSIPQANHSHSGDYHCTGNIGYTLFSSKPVTITVQVPSMGSSSPMG
notes: also called CD32a-His; recombinant CD32a protein; not shown: C-terminal His-tag

Legend:
Test in all cases: SPR, Biacore T200, biotinylated CD32a on neutravidin chip, DARPin as analyte
[1] = molecular target: B2
DARPin 53.D8 = molecular target: DARPin 53.D8
DARPin 53.H3 = molecular target: DARPin 53.H3
DARPin 53.2F11[TEV] = molecular target: DARPin 53.2F11[TEV]
DARPin 53.C8 = molecular target: DARPin 53.C8
DARPin 53.2.F11 = molecular target: DARPin 53.2.F11
DARPin 52.H6 = molecular target: DARPin 52.H6

Measured: Kd

B1
< 2 nM: [1]

B2
not listed: [1]
< 2 nM: all other assays above
